Assay results as given in the supplement of paper PMC10065799, “High-throughput profiling of sequence recognition by tyrosine kinases and SH2 domains using bacterial peptide display” (eLife, 2023).

What was measured:
Grb2 SH2 = Grb2 SH2 (UniProt P62993); assay: SH2 binding enrichment of the phosphorylated peptide, bacterial display (enrichment ratio); higher = better substrate or ligand; peptides without Tyr show the background
SHP2-C SH2 = assay: as above
c-Src SH2 = assay: as above
AncSZ = assay: phosphorylation enrichment, bacterial display (enrichment ratio); higher = better substrate or ligand; peptides without Tyr show the background
FGFR1 = FGFR1 (UniProt P11362); assay: as above
FGFR1, sequence (P11362 whole entry, looked up): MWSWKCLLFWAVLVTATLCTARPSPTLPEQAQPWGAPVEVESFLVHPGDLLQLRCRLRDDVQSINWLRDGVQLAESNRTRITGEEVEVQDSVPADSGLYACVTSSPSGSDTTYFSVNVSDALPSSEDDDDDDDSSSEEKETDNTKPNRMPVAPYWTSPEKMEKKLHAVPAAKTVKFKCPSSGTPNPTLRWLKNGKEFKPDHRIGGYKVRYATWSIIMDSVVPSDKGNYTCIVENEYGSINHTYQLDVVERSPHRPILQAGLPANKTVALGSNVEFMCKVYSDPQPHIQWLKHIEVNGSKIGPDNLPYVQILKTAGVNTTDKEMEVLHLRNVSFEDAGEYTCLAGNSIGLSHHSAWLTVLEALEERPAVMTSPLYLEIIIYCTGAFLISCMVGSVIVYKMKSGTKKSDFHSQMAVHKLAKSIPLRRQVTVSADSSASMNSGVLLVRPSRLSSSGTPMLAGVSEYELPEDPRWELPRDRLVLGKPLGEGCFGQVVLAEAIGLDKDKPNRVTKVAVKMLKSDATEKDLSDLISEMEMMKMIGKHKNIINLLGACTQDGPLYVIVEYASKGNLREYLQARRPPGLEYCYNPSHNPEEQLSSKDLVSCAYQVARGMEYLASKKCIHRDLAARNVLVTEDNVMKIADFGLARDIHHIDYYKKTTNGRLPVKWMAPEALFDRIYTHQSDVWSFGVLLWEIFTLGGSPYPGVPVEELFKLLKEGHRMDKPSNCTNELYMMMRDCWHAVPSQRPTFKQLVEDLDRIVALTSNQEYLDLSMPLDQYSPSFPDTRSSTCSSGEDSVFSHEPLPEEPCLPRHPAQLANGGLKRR

Fes = Fes (UniProt P07332); assay: as above
EPHB2 = EPHB2 (UniProt P29323); assay: as above
EPHB2, sequence (P29323 whole entry, looked up): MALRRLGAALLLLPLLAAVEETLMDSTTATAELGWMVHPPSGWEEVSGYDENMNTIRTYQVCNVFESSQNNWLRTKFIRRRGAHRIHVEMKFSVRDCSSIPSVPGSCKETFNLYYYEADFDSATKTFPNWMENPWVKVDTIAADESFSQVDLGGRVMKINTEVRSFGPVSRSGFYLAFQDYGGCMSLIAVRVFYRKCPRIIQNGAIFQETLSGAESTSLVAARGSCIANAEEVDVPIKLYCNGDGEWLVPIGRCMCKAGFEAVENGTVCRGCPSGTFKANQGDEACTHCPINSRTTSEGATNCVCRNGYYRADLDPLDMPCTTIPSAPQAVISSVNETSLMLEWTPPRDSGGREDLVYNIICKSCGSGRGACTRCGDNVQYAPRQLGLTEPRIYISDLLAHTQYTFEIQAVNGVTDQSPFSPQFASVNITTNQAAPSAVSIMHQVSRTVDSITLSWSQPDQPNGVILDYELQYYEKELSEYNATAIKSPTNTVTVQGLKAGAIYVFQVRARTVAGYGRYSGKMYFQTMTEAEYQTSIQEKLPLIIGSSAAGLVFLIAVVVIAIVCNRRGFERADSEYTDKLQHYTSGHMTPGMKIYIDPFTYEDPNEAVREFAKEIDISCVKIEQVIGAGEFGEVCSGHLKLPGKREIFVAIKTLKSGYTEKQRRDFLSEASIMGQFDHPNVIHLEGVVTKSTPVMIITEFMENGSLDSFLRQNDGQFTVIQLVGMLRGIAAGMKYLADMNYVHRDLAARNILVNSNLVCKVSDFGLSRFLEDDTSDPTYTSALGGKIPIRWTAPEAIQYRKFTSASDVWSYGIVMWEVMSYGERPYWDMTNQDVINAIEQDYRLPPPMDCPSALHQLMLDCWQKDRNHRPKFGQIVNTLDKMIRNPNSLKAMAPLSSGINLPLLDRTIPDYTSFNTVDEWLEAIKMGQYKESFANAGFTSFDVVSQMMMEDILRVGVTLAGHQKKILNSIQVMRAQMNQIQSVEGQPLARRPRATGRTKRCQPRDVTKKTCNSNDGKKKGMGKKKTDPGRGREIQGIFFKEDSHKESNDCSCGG

Fer (mouse) = assay: as above
EPHB1 = EPHB1 (UniProt P54762); assay: as above
FGFR3 = FGFR3 (UniProt P22607); assay: as above
MERTK = MERTK (UniProt Q12866); assay: as above
MERTK, sequence (Q12866 whole entry, looked up): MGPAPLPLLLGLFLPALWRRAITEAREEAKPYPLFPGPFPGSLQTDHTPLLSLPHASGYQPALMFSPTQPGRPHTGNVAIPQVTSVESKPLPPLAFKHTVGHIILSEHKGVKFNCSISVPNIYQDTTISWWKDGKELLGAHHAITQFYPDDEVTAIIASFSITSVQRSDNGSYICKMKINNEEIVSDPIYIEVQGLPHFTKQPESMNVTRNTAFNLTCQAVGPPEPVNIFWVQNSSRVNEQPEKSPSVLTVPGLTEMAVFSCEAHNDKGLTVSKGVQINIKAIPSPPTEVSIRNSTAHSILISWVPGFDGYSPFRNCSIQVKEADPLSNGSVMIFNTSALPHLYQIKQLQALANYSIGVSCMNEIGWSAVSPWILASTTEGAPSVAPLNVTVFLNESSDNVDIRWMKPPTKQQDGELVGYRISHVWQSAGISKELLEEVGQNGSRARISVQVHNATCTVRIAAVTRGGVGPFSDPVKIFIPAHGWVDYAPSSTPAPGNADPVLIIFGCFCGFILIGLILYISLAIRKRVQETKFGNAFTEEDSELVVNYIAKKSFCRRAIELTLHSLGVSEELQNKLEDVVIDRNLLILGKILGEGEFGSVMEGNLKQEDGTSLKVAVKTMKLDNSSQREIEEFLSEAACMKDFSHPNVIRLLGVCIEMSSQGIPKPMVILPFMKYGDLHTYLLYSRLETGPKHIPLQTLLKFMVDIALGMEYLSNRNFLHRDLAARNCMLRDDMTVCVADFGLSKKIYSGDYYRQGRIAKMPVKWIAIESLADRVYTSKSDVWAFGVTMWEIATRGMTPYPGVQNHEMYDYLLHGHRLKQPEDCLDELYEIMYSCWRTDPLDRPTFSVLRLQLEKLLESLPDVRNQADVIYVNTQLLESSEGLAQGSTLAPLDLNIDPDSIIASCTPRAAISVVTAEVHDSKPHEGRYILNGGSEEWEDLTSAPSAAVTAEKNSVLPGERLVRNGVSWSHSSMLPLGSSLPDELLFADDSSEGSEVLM

c-Src = assay: as above
Fyn = Fyn (UniProt P06241); assay: as above
Fyn, sequence (P06241 whole entry, looked up): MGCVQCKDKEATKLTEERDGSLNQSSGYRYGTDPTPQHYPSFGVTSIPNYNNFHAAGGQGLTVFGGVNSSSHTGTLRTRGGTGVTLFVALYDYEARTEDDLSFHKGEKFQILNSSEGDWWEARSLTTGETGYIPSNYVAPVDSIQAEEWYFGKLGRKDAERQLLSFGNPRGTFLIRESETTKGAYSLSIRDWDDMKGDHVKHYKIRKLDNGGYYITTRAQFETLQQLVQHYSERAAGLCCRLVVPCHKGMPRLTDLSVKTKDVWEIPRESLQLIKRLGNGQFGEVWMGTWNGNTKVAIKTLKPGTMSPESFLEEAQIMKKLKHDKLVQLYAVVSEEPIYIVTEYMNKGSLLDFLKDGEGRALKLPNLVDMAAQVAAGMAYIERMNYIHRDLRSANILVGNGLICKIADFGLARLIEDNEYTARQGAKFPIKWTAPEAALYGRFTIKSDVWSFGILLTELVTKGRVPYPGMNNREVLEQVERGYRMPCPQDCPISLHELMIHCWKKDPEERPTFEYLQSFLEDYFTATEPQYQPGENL

Jak2 = Jak2 (UniProt O60674); assay: as above
Jak2, sequence (O60674 whole entry, looked up): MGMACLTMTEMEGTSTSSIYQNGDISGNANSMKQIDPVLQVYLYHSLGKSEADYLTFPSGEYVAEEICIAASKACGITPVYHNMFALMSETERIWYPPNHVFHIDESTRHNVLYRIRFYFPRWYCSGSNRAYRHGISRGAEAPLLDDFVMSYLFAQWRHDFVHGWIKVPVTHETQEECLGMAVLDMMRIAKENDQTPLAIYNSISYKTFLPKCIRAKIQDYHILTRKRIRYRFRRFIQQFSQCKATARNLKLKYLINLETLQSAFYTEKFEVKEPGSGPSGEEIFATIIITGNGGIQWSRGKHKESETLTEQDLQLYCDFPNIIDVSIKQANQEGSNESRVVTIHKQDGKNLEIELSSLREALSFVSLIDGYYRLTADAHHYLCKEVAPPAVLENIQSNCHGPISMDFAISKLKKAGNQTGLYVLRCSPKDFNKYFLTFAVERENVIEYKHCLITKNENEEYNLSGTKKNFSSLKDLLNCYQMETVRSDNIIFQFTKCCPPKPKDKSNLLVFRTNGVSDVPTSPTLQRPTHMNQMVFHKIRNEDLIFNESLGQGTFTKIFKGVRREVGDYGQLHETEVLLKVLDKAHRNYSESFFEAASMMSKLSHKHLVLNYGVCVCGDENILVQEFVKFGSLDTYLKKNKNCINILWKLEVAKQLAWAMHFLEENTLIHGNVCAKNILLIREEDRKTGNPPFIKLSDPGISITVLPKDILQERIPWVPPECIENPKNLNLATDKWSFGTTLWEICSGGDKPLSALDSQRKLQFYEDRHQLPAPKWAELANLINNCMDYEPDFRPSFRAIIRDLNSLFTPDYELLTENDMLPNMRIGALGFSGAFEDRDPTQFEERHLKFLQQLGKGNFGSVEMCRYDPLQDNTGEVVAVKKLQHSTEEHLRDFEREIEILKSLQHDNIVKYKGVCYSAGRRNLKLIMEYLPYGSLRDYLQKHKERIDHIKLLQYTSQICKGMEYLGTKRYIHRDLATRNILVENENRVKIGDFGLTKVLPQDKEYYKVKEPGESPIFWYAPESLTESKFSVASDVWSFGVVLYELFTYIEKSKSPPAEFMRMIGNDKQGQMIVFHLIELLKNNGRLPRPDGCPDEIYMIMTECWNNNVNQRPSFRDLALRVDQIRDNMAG

c-Abl (mouse) = assay: as above
Hck = Hck (UniProt P08631); assay: as above
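For SH2 binding enrichment of the phosphorylated peptide, bacterial display in this document: peptide library displayed on the E. coli surface as eCPX fusions, selected cells deep-sequenced, score is each peptide's frequency after selection divided by its frequency in the input.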
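For phosphorylation enrichment, bacterial display in this document: 11-residue human phosphosite peptides and single-mutation variants displayed on the E. coli surface, counted by deep sequencing, each peptide's frequency after selection divided by its frequency in the unselected input library; frequency after pTyr selection over input frequency; kinase dosed for 20-30% of maximal phosphorylation in three min.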

Grb2 SH2, sequence (P62993 whole entry, looked up): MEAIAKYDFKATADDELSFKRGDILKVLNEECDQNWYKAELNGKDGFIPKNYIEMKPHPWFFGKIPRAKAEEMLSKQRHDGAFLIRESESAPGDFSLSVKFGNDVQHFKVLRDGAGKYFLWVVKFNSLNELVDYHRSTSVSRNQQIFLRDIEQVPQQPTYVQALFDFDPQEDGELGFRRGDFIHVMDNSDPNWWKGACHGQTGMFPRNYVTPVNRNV

| Sequence | SH2 binding enrichment (Grb2 SH2) | SH2 binding enrichment (SHP2-C SH2) | SH2 binding enrichment (c-Src SH2) | phosphorylation enrichment (AncSZ) | phosphorylation enrichment (FGFR1) | phosphorylation enrichment (Fes) | phosphorylation enrichment (EPHB2) | phosphorylation enrichment (Fer (mouse)) | phosphorylation enrichment (EPHB1) | phosphorylation enrichment (FGFR3) | phosphorylation enrichment (MERTK) | phosphorylation enrichment (c-Src) | phosphorylation enrichment (Fyn) | phosphorylation enrichment (Jak2) | phosphorylation enrichment (c-Abl (mouse)) | phosphorylation enrichment (Hck) |
| --- | --- | --- | --- | --- | --- | --- | --- | --- | --- | --- | --- | --- | --- | --- | --- | --- |
| KIEGIYARDET [RPL35A_Y34_V33I] | 0.883 | 0.788 | 0.548 | 0.887 | 0.585 | 0.919 | 0.497 | 0.491 | 0.536 | 0.619 | 0.413 | 1.09 | 1.07 | 0.663 | 0.493 | 1.12 |
| KIRDWYQRQRP [KRT14_Y151] | 0.84 | 0.744 | 0.523 | 0.621 | 0.415 | 0.635 | 0.463 | 0.45 | 0.405 | 0.419 | 0.446 | 0.502 | 0.4 | 0.553 | 0.637 | 0.38 |
| KIVQDYLEKFF [MMP8_Y36_T32I_YF] | 1.08 | 1.19 | 0.691 | 1.19 | 0.616 | 1.38 | 0.595 | 0.65 | 0.662 | 0.808 | 0.512 | 0.556 | 0.614 | 1.02 | 0.956 | 0.773 |
| KKEGPYDVVVL [PARK7_Y67] | 0.801 | 0.629 | 0.827 | 0.675 | 0.494 | 0.776 | 0.49 | 6.5 | 0.492 | 0.546 | 0.7 | 1.33 | 1.01 | 0.691 | 0.631 | 0.57 |
| KKHIPCREHKS [CSNK1G2_Y206_Y206C] | 1.6 | 1.62 | 1.68 | 1.76 | 1.13 | 2.35 | 0.962 | 1.66 | 1.6 | 3.13 | 0.713 | 0.832 | 0.667 | 3.46 | 2.79 | 0.876 |
| KKHIPHREHKS [CSNK1G2_Y206_Y206H] | 2.15 | 1.87 | 1.8 | 2.89 | 1.97 | 4.05 | 1.71 | 2.81 | 2.61 | 4.9 | 1.42 | 1.53 | 1.01 | 5.87 | 4.03 | 1.72 |
| KKRSVYIKVLF [CC2D2A_Y683_L684I] | 1.1 | 0.646 | 0.548 | 0.99 | 0.457 | 0.954 | 0.396 | 0.451 | 0.411 | 0.515 | 0.335 | 0.304 | 0.392 | 0.798 | 0.644 | 0.363 |
| KLADMYGGGKD [CDH1_Y876_E880K] | 0.779 | 0.376 | 0.412 | 0.584 | 0.462 | 0.692 | 0.497 | 0.414 | 0.468 | 0.424 | 0.346 | 0.353 | 0.425 | 0.547 | 0.528 | 0.476 |
| KLADVYQAELR [GFAP_Y116] | 0.844 | 0.561 | 0.486 | 0.789 | 0.472 | 0.792 | 0.459 | 0.445 | 0.533 | 0.667 | 0.429 | 0.634 | 0.492 | 0.549 | 0.549 | 0.47 |
| KLCHLYQDHMQ [WNT5A_Y86] | 1.08 | 1.17 | 1.4 | 0.654 | 0.44 | 0.881 | 0.53 | 0.667 | 0.54 | 0.514 | 0.45 | 0.575 | 0.442 | 0.549 | 0.597 | 0.554 |
| KLKPIYFHTQG [AR_Y916_V912L] | 1.78 | 2.12 | 1.95 | 0.602 | 0.511 | 0.671 | 0.503 | 0.312 | 0.393 | 0.525 | 0.4 | 0.523 | 0.349 | 0.513 | 0.568 | 0.364 |
| KLPDAYERFIL [G6PD_Y437_L440F] | 0.933 | 0.801 | 1.1 | 0.985 | 0.476 | 1.06 | 0.562 | 1.22 | 0.568 | 0.661 | 0.538 | 0.713 | 0.578 | 0.892 | 0.745 | 0.569 |
| KLQQWYREPRS [GPI_Y17_H20P] | 0.999 | 0.799 | 0.5 | 0.85 | 0.36 | 0.708 | 0.712 | 0.385 | 0.44 | 0.491 | 0.463 | 0.507 | 0.446 | 0.562 | 0.615 | 0.493 |
| KLSCSYSHWSA [C4BPA_Y470] | 0.894 | 0.802 | 0.732 | 1.13 | 0.793 | 1.28 | 0.771 | 0.657 | 0.716 | 0.91 | 0.527 | 0.672 | 0.578 | 0.894 | 1.15 | 0.636 |
| KLSFSYGWALQ [ALDOB_Y302_R304W] | 0.921 | 0.67 | 0.558 | 1.52 | 0.676 | 1.8 | 0.764 | 0.591 | 0.844 | 0.936 | 0.559 | 0.585 | 0.503 | 1.72 | 1.19 | 0.509 |
| KNCFKYYMSDD [ATRX_Y203] | 0.828 | 0.785 | 0.835 | 1.4 | 0.547 | 1.37 | 0.701 | 0.624 | 0.794 | 1.01 | 0.496 | 0.572 | 0.54 | 1.16 | 0.961 | 0.595 |
| KNSSIYVVANI [VNN1_Y134_N131S] | 0.988 | 0.942 | 0.646 | 1.23 | 0.528 | 1.38 | 0.64 | 0.622 | 0.681 | 0.873 | 0.751 | 0.691 | 0.567 | 1.31 | 1.07 | 0.662 |

| Sequence | SH2 binding enrichment (Grb2 SH2) | SH2 binding enrichment (SHP2-C SH2) | SH2 binding enrichment (c-Src SH2) | phosphorylation enrichment (AncSZ) | phosphorylation enrichment (FGFR1) | phosphorylation enrichment (Fes) | phosphorylation enrichment (EPHB2) | phosphorylation enrichment (Fer (mouse)) | phosphorylation enrichment (EPHB1) | phosphorylation enrichment (FGFR3) | phosphorylation enrichment (MERTK) | phosphorylation enrichment (c-Src) | phosphorylation enrichment (Fyn) | phosphorylation enrichment (Jak2) | phosphorylation enrichment (c-Abl (mouse)) | phosphorylation enrichment (Hck) |
| --- | --- | --- | --- | --- | --- | --- | --- | --- | --- | --- | --- | --- | --- | --- | --- | --- |
| KPGLIYNKVNP [SPRED3_Y72_V71I] | 1.12 | 1.44 | 0.895 | 0.703 | 0.373 | 1 | 0.408 | 0.803 | 0.485 | 0.429 | 1.07 | 0.975 | 0.738 | 0.722 | 0.857 | 2.25 |
| KPGLKYVTFGN [GALNTL5_Y404_YF] | 1.33 | 1.7 | 1.21 | 0.671 | 0.412 | 0.768 | 0.539 | 0.366 | 0.351 | 0.514 | 0.449 | 0.488 | 0.409 | 0.605 | 0.551 | 0.498 |
| KPGVNYFFRVS | 0.863 | 0.749 | 0.463 | 1.06 | 0.376 | 1.32 | 0.472 | 0.41 | 0.495 | 0.697 | 0.358 | 0.374 | 0.348 | 0.986 | 0.73 | 0.479 |
| KRELRYMHSRV [ABCD1_Y281_G277R] | 1.43 | 1.65 | 1.49 | 0.472 | 0.295 | 0.578 | 0.534 | 0.272 | 0.282 | 0.447 | 0.305 | 0.313 | 0.312 | 0.525 | 0.486 | 0.381 |
| KRFRIYHLATS [BRCA2_Y3009_YF] | 1.05 | 1.18 | 1.24 | 0.567 | 0.358 | 1.57 | 0.435 | 0.422 | 0.353 | 0.481 | 0.38 | 0.482 | 0.434 | 0.439 | 0.391 | 0.454 |
| KRGIDYILWHM [FRMD1_Y225_R228W] | 1.56 | 1.5 | 1.08 | 1.04 | 1.33 | 1.15 | 0.824 | 0.591 | 0.765 | 0.984 | 0.548 | 0.414 | 0.5 | 1.06 | 0.788 | 0.536 |
| KRLAVYIDEEA [EPM2A_Y304_P301L] | 0.85 | 0.486 | 0.507 | 1.11 | 0.514 | 1.14 | 0.615 | 0.524 | 0.665 | 0.837 | 0.484 | 0.578 | 0.601 | 1.23 | 0.781 | 0.496 |
| KRPAVYIDEEA [EPM2A_Y304] | 0.949 | 0.709 | 0.711 | 1.07 | 0.598 | 1.07 | 0.514 | 0.548 | 0.547 | 0.704 | 0.518 | 0.542 | 0.567 | 0.901 | 0.746 | 0.485 |
| KRYRIYHLAIS [BRCA2_Y3009_T3013I] | 1.13 | 1.03 | 1.51 | 0.535 | 0.599 | 0.68 | 0.358 | 0.406 | 0.37 | 0.464 | 0.62 | 0.459 | 0.343 | 0.604 | 0.449 | 0.446 |
| KSAAIYNPVIY [RHO_Y301] | 1.1 | 0.581 | 1.02 | 0.758 | 1.41 | 0.72 | 0.744 | 15.4 | 0.805 | 1.25 | 3.42 | 6.12 | 7.54 | 0.573 | 0.727 | 8.17 |
| KSEMSYIDGEK [SORBS1_Y485] | 0.697 | 0.68 | 0.467 | 0.899 | 0.659 | 0.848 | 0.999 | 0.493 | 0.72 | 0.592 | 0.479 | 0.449 | 0.502 | 0.736 | 0.586 | 0.469 |
| KTDKKYLMIEE [BAG3_Y451] | 0.762 | 0.573 | 0.473 | 0.867 | 0.463 | 1.11 | 0.635 | 0.647 | 0.436 | 0.746 | 0.424 | 0.532 | 0.477 | 0.96 | 0.807 | 0.516 |
| KTGNIYRTEYG [MRPL3_Y265_M261T] | 0.829 | 0.91 | 0.463 | 0.555 | 0.464 | 0.633 | 0.421 | 0.629 | 0.451 | 0.592 | 0.425 | 0.424 | 0.488 | 0.414 | 0.441 | 0.496 |
| KVALVYGQMNE [ATP5F1B_Y269] | 0.851 | 0.734 | 0.57 | 0.785 | 0.443 | 1.13 | 0.495 | 0.525 | 0.446 | 0.606 | 0.38 | 1.97 | 1.47 | 0.769 | 0.65 | 1.05 |
| KVDKEYEVHVR [GHR_Y226_R229H] | 0.804 | 0.566 | 0.52 | 0.934 | 0.474 | 0.956 | 0.548 | 0.498 | 0.68 | 0.555 | 0.416 | 0.444 | 0.485 | 0.725 | 0.576 | 0.497 |
| KVGPGSLGSGG [RET_Y826_Y826S] | 0.778 | 0.526 | 0.447 | 0.4 | 0.308 | 0.489 | 0.353 | 0.293 | 0.29 | 0.366 | 0.3 | 0.374 | 0.352 | 0.466 | 0.482 | 0.323 |
